{
  "source": "patent US20230174598A1",
  "about": "(UNIVERSITY OF FLORIDA RESEARCH FOUNDATION, published 2023)",
  "key": {"[1]": {"biological_target": "SDM-Eno: enolase-1 with all seven corresponding charge-reversal mutations (bovine) (UniProt Q9XSJ4)", "sequence (Q9XSJ4 whole entry, change not shown)": "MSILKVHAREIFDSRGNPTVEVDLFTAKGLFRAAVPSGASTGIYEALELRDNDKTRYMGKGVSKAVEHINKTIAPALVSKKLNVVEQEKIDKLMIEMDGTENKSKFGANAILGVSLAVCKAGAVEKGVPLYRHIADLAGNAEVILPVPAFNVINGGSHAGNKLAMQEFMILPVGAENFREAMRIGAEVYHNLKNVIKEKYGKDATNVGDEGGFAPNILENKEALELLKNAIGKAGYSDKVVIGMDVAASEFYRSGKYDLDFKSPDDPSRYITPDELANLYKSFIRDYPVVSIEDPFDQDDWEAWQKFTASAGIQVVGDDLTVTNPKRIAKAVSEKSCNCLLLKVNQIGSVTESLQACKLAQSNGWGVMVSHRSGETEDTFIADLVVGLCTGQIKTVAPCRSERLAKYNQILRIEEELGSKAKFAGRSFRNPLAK", "assay": "anti-arrestin-1 (C10C10) immunoprecipitation pulldown of AlexaFluor546-labeled enolase-1; 5 µM each"}, "bovine enolase-1 [2]": {"biological_target": "T1, bovine enolase-1 (bovine, UniProt Q9XSJ4 1-434, AlexaFluor-546 maleimide on reactive cysteines (pulldown assay only; unlabeled in the quench and activity assays))", "T1 construct": "also called Eno1; alpha-enolase", "assay": "anti-arrestin-1 (C10C10) immunoprecipitation pulldown of AlexaFluor546-labeled enolase-1; 5 µM each", "protocol": "E. Immunoprecipitation/Enolase Pulldown assay. The interaction between arrestin-1 and enolase-1 was assessed by using anti-arrestin-1 antibody to immunoprecipitate the arrestin-1-enolase-1 complex in which the enolase-1 was fluorescently labeled with AlexaFluor546. For this assay, 1.5 mg of Protein G-coated magnetic beads (DynaBeads, ThermoFisher), were coated with 10 μg of purified C10C10 anti-arrestin-1 monoclonal antibody (Donoso et al. (1990) S-antigen: preparation and characterization of site-specific monoclonal antibodies. Curr Eye Res 9, 343-355). Enolase-1 was labeled on its reactive cysteines with AlexaFluor-546 maleimide (ThermoFisher), reacting the enolase-1 with 100-fold molar excess of the fluorescent label. The fluorescently labeled enolase-1 was then sequentially dialyzed in LAP200^N buffer to remove any unreacted label. For the immunoprecipitation of the arrestin-1-enolase-1 complex, 5 μM arrestin-1 (or arrestin-1 variant) was mixed with 5 μM enolase-1-Alexa546 in LAP200^N in a 200 μL final volume for 2 h at 4° C., to which 10 μg of anti-arrestin-1 antibody on magnetic beads was subsequently added for 16 h with gentle rotation. The beads were magnetically captured, washed ten times with LAP200^N buffer, and then eluted with 0.1 M glycine (pH 2.5). After neutralizing the pH with 0.1 volume 1.5 M Tris base (pH 8.5), the fluorescence of the captured enolase-1-Alexa546 was measured, exciting fluorescence at 530 nm, and measuring average emission at 570-575 nm with a dual-detector fluorimeter (QM-1 steady state fluorescence spectrophotometer, Photon Technologies Inc).\nThe charge-pair interactions identified in example 1 were selected to further investigate the modeled arrestin-1/enolase-1 interaction. Seven charged-pair interactions (Table 3 and FIG. 4A) were identified from the model as having the closest interactions. […] Following heterologous expression and purification, each arrestin-1 mutant was then assessed for its interaction with enolase-1, using an anti-arrestin-1 immunoprecipitation assay to pulldown fluorescently labelled enolase-1."}, "bovine enolase-1 [3]": {"biological_target": "T1, bovine enolase-1", "assay": "titration of enolase-1 (0-12.5 µM) on 0.25 µM H10C-mBBr, KI quench protection", "text": "FIGS. 1A-1B. Graph illustrating optimization of fluorescence quench and quench protection.\nB. Enolase concentration. The concentration of enolase-1 that could provide protection of mBBr fluorescence from quenching by the KI was then titrated. […] 90% quench protection was selected as the criterion value, which corresponded to a 20-fold molar excess of enolase-1 to arrestin-1."}, "bovine enolase-1 [4]": {"biological_target": "T1, bovine enolase-1", "assay": "KI quench protection of mBBr-labeled arrestin-1; 0.25 µM arrestin-1, 5 µM (20-fold) enolase-1", "protocol": "C. Quenching assay. Cysteine mutants of arrestin-1 were labeled with monobromobimane (mBBr, ThermoFisher), reacting the arrestin-1 protein with 100-fold molar excess of the fluorescent label for two hours at room temperature. The unreacted label was removed by dialyzing against three sequential changes of 500-volumes of LAP200 buffer. […] Fluorescence quenching of the mBBr fluorophore was performed using 0.25 μM mBBr-labeled arrestin-1 with 100 mM potassium iodide in the presence or absence of 5 μM bovine enolase-1 that had been heterologously expressed and purified as previously described for arrestin-1, monitoring fluorescence emission at 470 nm. To determine the degree to which enolase-1 shielded a residue from quenching by potassium iodide, a protection factor was calculated as follows: […]\nC. Mapping interaction of arrestin-1 with enolase-1. […] The fluorescence emission of the mBBr-labeled arrestin-1 with and without potassium iodide was measured to determine the range of quenching by KI. The fluorescence emission quench by KI with and without enolase-1 was then measured. A quench protection factor was calculated as described in the experimental procedures (Table 2). […] When mapped onto the surface of the arrestin-1 structure, these residues largely mapped to a single surface along the “bottom” of the arrestin protein (FIG. 2B)."}},
  "data": [
    {"molecule": "bovine wild-type arrestin-1, N-terminally His(6)-tagged (from UniProt P08168 2-404)", "values": [
      {"measurement": "decrease of pulldown compared to pulldown of wild-type enolase-1", "setting": "[1]", "value": "> 80", "unit": "%"}
    ]},
    {"molecule": "D362K arrestin-1 (bovine, His(6)-tagged charge-reversal mutant) (other) MHHHHHHKANKPAPNHVIFKKISRDKSVTIYLGKRDYIDHVERVEPVDGVVLVDPELVKGKRVYVSLTCAFRYGQEDIDVMGLSFRRDLYFSQVQVFPPVGASGATTRLQESLIKKLGANTYPFLLTFPDYLPCSVMLQPAPQDVGKSCGVDFEIKAFATHSTDVEEDKIPKKSSVRLLIRKVQHAPRDMGPQPRAEASWQFFMSDKPLRLAVSLSKEIYYHGEPIPVTVAVTNSTEKTVKKIKVLVEQVTNVVLYSSDYYIKTVAAEEAQEKVPPNSSLTKTLTLVPLLANNRERRGIALDGKIKHEDTNLASSTIIKEGIDKTVMGILVSYQIKVKLTVSGLLGELTSSEVATEVPFRLMHPQPEKPDTAKESFQDENFVFEEFARQNLKDAGEYKEEKTDQEAAMDE", "values": [
      {"measurement": "reduction of enolase-1 pulldown relative to wild-type arrestin-1", "setting": "bovine enolase-1 [2]", "value": "~25", "unit": "%"}
    ]},
    {"molecule": "E361K arrestin-1 (bovine, His(6)-tagged charge-reversal mutant) (other) MHHHHHHKANKPAPNHVIFKKISRDKSVTIYLGKRDYIDHVERVEPVDGVVLVDPELVKGKRVYVSLTCAFRYGQEDIDVMGLSFRRDLYFSQVQVFPPVGASGATTRLQESLIKKLGANTYPFLLTFPDYLPCSVMLQPAPQDVGKSCGVDFEIKAFATHSTDVEEDKIPKKSSVRLLIRKVQHAPRDMGPQPRAEASWQFFMSDKPLRLAVSLSKEIYYHGEPIPVTVAVTNSTEKTVKKIKVLVEQVTNVVLYSSDYYIKTVAAEEAQEKVPPNSSLTKTLTLVPLLANNRERRGIALDGKIKHEDTNLASSTIIKEGIDKTVMGILVSYQIKVKLTVSGLLGELTSSEVATEVPFRLMHPQPKDPDTAKESFQDENFVFEEFARQNLKDAGEYKEEKTDQEAAMDE", "values": [
      {"measurement": "reduction of enolase-1 pulldown relative to wild-type arrestin-1", "setting": "bovine enolase-1 [2]", "value": "~25", "unit": "%"}
    ]},
    {"molecule": "R29E arrestin-1 (bovine, His(6)-tagged charge-reversal mutant) (other) MHHHHHHKANKPAPNHVIFKKISRDKSVTIYLGKEDYIDHVERVEPVDGVVLVDPELVKGKRVYVSLTCAFRYGQEDIDVMGLSFRRDLYFSQVQVFPPVGASGATTRLQESLIKKLGANTYPFLLTFPDYLPCSVMLQPAPQDVGKSCGVDFEIKAFATHSTDVEEDKIPKKSSVRLLIRKVQHAPRDMGPQPRAEASWQFFMSDKPLRLAVSLSKEIYYHGEPIPVTVAVTNSTEKTVKKIKVLVEQVTNVVLYSSDYYIKTVAAEEAQEKVPPNSSLTKTLTLVPLLANNRERRGIALDGKIKHEDTNLASSTIIKEGIDKTVMGILVSYQIKVKLTVSGLLGELTSSEVATEVPFRLMHPQPEDPDTAKESFQDENFVFEEFARQNLKDAGEYKEEKTDQEAAMDE", "values": [
      {"measurement": "reduction of enolase-1 pulldown relative to wild-type arrestin-1", "setting": "bovine enolase-1 [2]", "value": "~25", "unit": "%"}
    ]},
    {"molecule": "H10C arrestin-1 (bovine, His(6), C63A/C143A) labeled with monobromobimane (other, monobromobimane (mBBr) on Cys 10, Cysteine-substitution mutant, made in Pichia pastoris; also called H10C-mBBr) MHHHHHHKANKPAPNCVIFKKISRDKSVTIYLGKRDYIDHVERVEPVDGVVLVDPELVKGKRVYVSLTAAFRYGQEDIDVMGLSFRRDLYFSQVQVFPPVGASGATTRLQESLIKKLGANTYPFLLTFPDYLPCSVMLQPAPQDVGKSAGVDFEIKAFATHSTDVEEDKIPKKSSVRLLIRKVQHAPRDMGPQPRAEASWQFFMSDKPLRLAVSLSKEIYYHGEPIPVTVAVTNSTEKTVKKIKVLVEQVTNVVLYSSDYYIKTVAAEEAQEKVPPNSSLTKTLTLVPLLANNRERRGIALDGKIKHEDTNLASSTIIKEGIDKTVMGILVSYQIKVKLTVSGLLGELTSSEVATEVPFRLMHPQPEDPDTAKESFQDENFVFEEFARQNLKDAGEYKEEKTDQEAAMDE", "values": [
      {"measurement": "quench protection at 20-fold molar excess of enolase-1", "setting": "bovine enolase-1 [3]", "value": 90, "unit": "%"},
      {"measurement": "F(A+E+K) (fluorescence with enolase-1 and KI)", "setting": "bovine enolase-1 [4]", "value": 10300},
      {"measurement": "Pf (quench protection factor)", "setting": "bovine enolase-1 [4]", "value": 0.792}
    ]}
  ]
}
